Reference: publication PMC5125287 (Annals of Medicine, 2016)

Biological target: Recombinant carrier-free human βNGF (human, UniProt P01138 122-241)
Assay: SPR; BIACORE; PDPN/Fc amine-coupled to a CM5 chip (6000 to 8000 RU); analyte injected at 5 μl/min; NGF at 1 μM; 20 °C; HBS-P (0.01 M Hepes pH 7.4/0.15 M NaCl/0.005% Surfactant P20); reference channel subtracted; regeneration with 1% heparin in PBS; 1:1 Langmuir fit, KD estimated by the steady-state affinity model
Conditions: both partners purified

Recombinant carrier-free human βNGF, sequence (P01138 122-241): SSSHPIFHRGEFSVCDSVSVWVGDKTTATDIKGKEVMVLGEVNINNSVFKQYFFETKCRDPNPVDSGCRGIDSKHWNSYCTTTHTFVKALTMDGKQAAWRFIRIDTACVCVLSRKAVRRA

- Kd: ~100 nM
B1: Human podoplanin extracellular domain/Fc chimera (Fc fusion, UniProt Q86YL7 23-131, looked up)
chain: ASTGQPEDDTETTGLEGGVAMPGAEDDVVTPGTSEDRYKSGLTTLVATSVNSVTGIRIEDLPTSESTVHAQEQSPSATASNVATSHSTEKVDGDTQTTVEKDGLSTVTL
